The chains are these.
B1: junctophilin-1 (JPH1), native, rabbit skeletal muscle SR vesicles (other, UniProt Q9GKY8 1-662, looked up)
chain: MTGGRFDFDDGGTYCGGWEEGKAHGHGICTGPKGQGEYSGSWSHGFEVVGGYTWPSGNTYQGYWAQGKRHGLGVETKGKWMYRGEWSHGFKGRYGVRQSLCTPARYEGTWSNGLQDGYGVETYGDGGTYQGQWAGGMRHGYGVRQSVPYGMATVIRSPLRTSLASLRSEQSNGSVLHDAAAAADTPTGTRGGFVLNFHADAELAGKKKGGLFRRGSLLGSMKLRKSESKSSISSKRSSVRSDAAMSRISSSDANSTISFGDVDCDFCPVEDHVDATTTETYMGEWKNDKRNGFGISERSNGMKYEGEWANNKRHGYGCTVFPDGSKEEGKYKNNILVRGIRKQLIPIRNTKTREKVDRAIEGAQRAAAMARTKVEIANSRTAHARAKADAADQAALAARQECDIARAVARELSPDFYQPGPDYIKQRLQEGVDAKENPEEKVPAKPPTPKESPHFYRKGTTPPGSPEASPKYSRSPQPSPPKPAKKQNPSSGARLNQDKRGVAEEQVTAIVNKPLTSKAPTKEVGAAVSQSKYSGRHHVPNPSNGELHSQYHGYYVKLHAPQHPPVDAEDDDRSSPSSSALVHKPSPNKWSPPKSVTKPVAKESKAEPKAKKSELAIPKNPASNDSCPSMEREANSGPNSVMIVLVMLLNIGLAILFVHFLT
B2: sarco(endo)plasmic reticulum Ca^2+-ATPase 1 (SERCA1) (enzyme)
chain: MEAAHSKSTEECLAYFGVSETTGLTPDQVKRHLEKYGHNELPAEEGKSLWELVIEQFEDLLVRILLLAACISFVLAWFEEGEETITAFVEPFVILLILIANAIVGVWQERNAENAIEALKEYEPEMGKVYRADRKSVQRIKARDIVPGDIVEVAVGDKVPADIRILSIKSTTLRVDQSILTGESVSVIKHTEPVPDPRAVNQDKKNMLFSGTNIAAGKALGIVATTGVSTEIGKIRDQMAATEQDKTPLQQKLDEFGEQLSKVISLICVAVWLINIGHFNDPVHGGSWIRGAIYYFKIAVALAVAAIPEGLPAVITTCLALGTRRMAKKNAIVRSLPSVETLGCTSVICSDKTGTLTTNQMSVCKMFIIDKVDGDFCSLNEFSITGSTYAPEGEVLKNDKPIRSGQFDGLVELATICALCNDSSLDFNETKGVYEKVGEATETALTTLVEKMNVFNTEVRNLSKVERANACNSVIRQLMKKEFTLEFSRDRKSMSVYCSPAKSSRAAVGNKMFVKGAPEGVIDRCNYVRVGTTRVPMTGPVKEKILSVIKEWGTGRDTLRCLALATRDTPPKREEMVLDDSSRFMEYETDLTFVGVVGMLDPPRKEVMGSIQLCRDAGIRVIMITGDNKGTAIAICRRIGIFGENEEVADRAYTGREFDDLPLAEQREACRRACCFARVEPSHKSKIVEYLQSYDEITAMTGDGVNDAPALKKAEIGIAMGSGTAVAKTASEMVLADDNFSTIVAAVEEGRAIYNNMKQFIRYLISSNVGEVVCIFLTAALGLPEALIPVQLLWVNLVTDGLPATALGFNPPDLDIMDRPPRSPKEPLISGWLFFRYMAIGGYVGAATVGAAAWWFMYAEDGPGVTYHQLTHFMQCTEDHPHFEGLDCEIFEAPEPMTMALSVLVTIEMCNALNSLSENQSLMRMPPWVNIWLLGSICLSMSLHFLILYVDPLPMIFKLKALDLTQWLMVLKISLPVIGLDEILKFIARNYLEDPEDERRK
notes: One entry covers native rabbit SERCA1 (SR vesicles) and untagged recombinant rabbit SERCA1 (COS7/HEK293 extracts and microsomes); The assay field of each row says which source was used; also called SERCA1-pcDNA3.1

Where no end group is shown, it is not given here.

The target of test [1] is B2. Briefly: cell-based or functional assay.
For test [2], the target named is B2. Kind of test: coIP with antibodies to JPH1 from rabbit SR vesicles. The procedure:
CoIP experiments were performed as described in (60), with preparations of SR vesicles isolated by the method of Eletr and Inesi (61, 62) from rabbit skeletal muscle from the back and hind limb (Pel-Freez, Rogers, Ark.), or from crude membrane extracts of COS7 cells prepared as described (59, 63). For the latter, COS7 cells were harvested in PBS at 48 h following transfection, collected by centrifugation, frozen in liquid N₂ and stored at −80° C. until needed. Briefly, pellets were homogenized with 30 strokes of a glass Dounce homogenizer in resuspension buffer (0.25 M sucrose, 10 mM Tris-HCl, pH 7.5, 20 mM CaCl₂, 3 mM 2-mercaptoethanol, 150 mM KCl), and solubilized with an equal volume of lysis buffer (40 mM HEPES-NaOH, pH 7.5, 300 mM NaCl, 2 mM EDTA, 1% Tween 20). SR vesicles were prepared for coIP by the same methods for resuspension and solubilization. The muscle and cell extracts were pre-cleared with 50 μL uncoated Dynabeads. The pre-cleared extracts were mixed with antibody-coated Dynabeads (5 ug antibody/50 uL beads) and incubated at 4° C. for 4 h. […] Proteins in the samples were separated by SDS-PAGE and analyzed via immunoblot as described (64).
The interaction between SERCA1 and sAnk1 was first analyzed by co-immunoprecipitation (coIP), performed with SR vesicles prepared from rabbit skeletal muscle (see Methods). […]

The target in test [3] is Maltose Binding Protein (MBP) alone (UniProt P0AEX9 27-392 = MBP). Briefly: blot overlay on rabbit SR vesicle proteins. How it is done: A FLAG empty vector was used as controls. […] 7B. Amylose resin bound to bacterially expressed sAnk1₂₉₋₁₅₅-MBP fusion protein was incubated with COS7 extracts transfected to express SERCA1. MBP protein alone was used as a control. […] Ponceau staining was used as a loading control (top panel). 7C. SR vesicle preparations were used for blot overlay assays. Blots were first overlaid with sAnk1₂₉₋₁₅₅-MBP or MBP protein alone, followed by incubation with antibodies to MBP. […] Ponceau staining was used as a loading control (right panel).
The blot overlay assay was performed as described (50, 69) with minor modifications. […] The generation and purification of these fusion proteins were as described (51). A separate section of the membrane was reserved to identify SERCA1. Blots were washed extensively with overlay buffer and once with TBS, pH 7.4, plus 0.5% Tween-20 (TBST). The blots were blocked in TBST+4% non-fat dry milk for 4 h at 25° C. and probed with antibodies to MBP (overlay portion) and SERCA1 (non-overlay portion). Immunoblots were completed as described above.

For {FLAG tag}-MERSTRELCLNFTVVLITVILIWLLVRSYQY (other, rabbit, UniProt P42532 1-31, looked up, not shown: small tags and cut ends, not fully specified) [N-terminal FLAG-tagged sarcolipin (NF-SLN)], in test [1], the “ΔKCa2+ relative to SERCA1 Alone” value is -0.37 pCa^2+ units.

Regarding B1, the binding result in test [2] was “no binding”. For the molecule B2, in test [3], the binding result is listed as “no binding (tested: 3 µg/mL)”.
